According to US20240343781A1:

Key:
SARS-CoV-2 Spike = test: SPR
SHC014 = test: ELISA
RaTG13 = test: ELISA
Rf1 = test: ELISA
Rs4081 = test: ELISA
GX-Pangolin = test: ELISA
BM-4831 = test: ELISA
Yunnan2011 = test: ELISA
RmYN02 = test: ELISA
SARS-CoV = test: ELISA
BtKY72 = test: ELISA
WIV1 = test: ELISA
[1] = biological target: SARS-CoV Spike (SARS-CoV) (UniProt P59594); test: SPR

Row | Substance | Kd (SARS-CoV-2 Spike) [pM] | EC50 (SHC014) [µg/mL] | EC50 (RaTG13) [µg/mL] | EC50 (Rf1) [µg/mL] | EC50 (Rs4081) [µg/mL] | EC50 (GX-Pangolin) [µg/mL] | EC50 (BM-4831) [µg/mL] | EC50 (Yunnan2011) [µg/mL] | EC50 (RmYN02) [µg/mL] | EC50 (SARS-CoV) [µg/mL] | EC50 (BtKY72) [µg/mL] | EC50 (WIV1) [µg/mL] | Kd [1] [pM]
1 | DH1047 | 1.06 | 0.003 | 0.003 | > 10 | 0.013 | 0.006 | 0.002 | 0.011 | 0.01 | 0.009 | 0.003 | 0.003 | 
2 | ADG-2 | 0.983 | 0.003 | > 10 | > 10 | > 10 | 0.089 | 0.711 | > 10 | > 10 | 0.002 | 0.005 | 0.005 | 
3 | REGN10985 | 8.72 | 0.003 | > 10 | > 10 | > 10 | 3.3 | 0.72 | > 10 | > 10 | > 10 | 0.001 | 0.003 | 
4 | S2X259 | 0.895 | 0.007 | > 10 | > 10 | 2.29 | 0.035 | 0.005 | > 10 | > 10 | 0.016 | 0.004 | 0.005 | 
5 | COVA1-16 | 1.29 | 0.049 | 0.614 | 7.07 | > 10 | 0.043 | > 10 | > 10 | > 10 | > 10 | > 10 | > 10 | 19500
6 | S309 | 1.94 |  | > 10 | > 10 | > 10 | 0.052 | 0.286 | > 10 | > 10 | 0.011 | > 10 | 0.023 | 
7 | S2H97 | 4.53 | > 10 | 0.008 | 0.005 | 0.009 | 0.026 | 0.009 | 0.124 | 0.011 | 0.015 | 0.006 | 0.54 | 
